Experimental data as given in paper PMC8591511, “Flexible open conformation of the AP-3 complex explains its role in cargo recruitment at the Golgi” (The Journal of Biological Chemistry, 2021).
Each block holds one molecule with its values, some of them ahead of it.

B1: Apl6 (β3-subunit of yeast AP-3) (natural protein, S. cerevisiae, UniProt P46682 1-809, looked up)
chain: MVDSIHRIASALDTAKVITREAAAVATSKLGESSYTYYSQNINPQQLVTLLNSRNSREVRDAMKRIISIMASDDDSIDVQLYFADVVKNITTNDTKVKRLIHLYLLRFAENDPNLTLLSINSLQKSLSDSNSELRCFALSALSDMKMSSLAPIILHTVKKLVTDPSAMVRGEVALAIIKLYRAGKNDYHEELLDILKELMADTDPKVISCAVLAYKECYADHLELLHGHFRRYCRIIKQLDSWSQSYLIELLIKYCKQYLPKPTVVDKSSEGSPRSCPLPDKYNEIEYPSYEVVNDPDLDLFLQSLNCLIYSSNPTVILSCCNALYQLASPLQMKNTKFIEALVRTVTMTENQGNKEMLLQAIHFLSILDQTLFLPYTKKFYVFPKDPIVASIWKIQILSTLINESNVKEIFKELKYYVASAHFPENVVIMAVKSLSRCGQLSTSWESHVMKWLIDHMESHNLSASVLDAYVNVIRMLVQKNPTKHLRIIFKLADLLTVQTSLADNARAGIVWLFGEIASIEFKICPDVLRRLIQNFSNEGPETRCQILVLSAKLLSYDIDNFKQAQVTGSEENNQNPPYYDFSGSRISQMYNAVLYLAKYDDEFDIRDRARMISSLFDSGKYEIVSLLLQAPKPTARSDDFIVSARLETHTPEIKEFFRMLPWNTEITEVGETGNDIREGAELKDYNKYKKSFSSQSFITNNSARSFTSSSNAKLTGINDGDSNSISGKGNVNTFTSQNGKKYRLQSLDEFFSDIPERKSKPRKIIKVVEESSDEDEDESEESSDDDEYSDSSLGTSSSGTSSSHLEL
notes: Apl6, β3-subunit of the yeast AP-3 complex; ear domain aa 631–809

How the values were obtained:
[1] = molecular target: N-myristoylated Arf1, loaded with GTP or GTPγS by Sec7ΔC (UniProt P11076); test: liposome flotation assay; empty liposomes (Golgi-mimicking lipid mix, with or without PI3P or PI4P) incubated with increasing Arf1, Sec7 GEF and GTP, then purified AP-1 or AP-3 complex; floated on a sucrose step gradient; band of Apl4 or Apl5 in the top fraction quantified
Chain of N-myristoylated Arf1, loaded with GTP or GTPγS by Sec7ΔC (P11076 whole entry, stated change not applied, the tested form may be a part): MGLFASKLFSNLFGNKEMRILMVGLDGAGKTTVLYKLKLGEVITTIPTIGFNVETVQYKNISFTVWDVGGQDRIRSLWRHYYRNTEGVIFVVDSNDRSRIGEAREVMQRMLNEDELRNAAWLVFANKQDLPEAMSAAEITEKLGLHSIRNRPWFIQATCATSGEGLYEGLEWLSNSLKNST

[2] = molecular target: GST-Chs3(aa1-38)-Vam3(TMD) (not stated | yeast) (UniProt P29465); test: liposome flotation assay; proteoliposomes (Golgi-mimicking lipid mix) carrying a total of 1 μM cargo, incubated with purified AP-1 or AP-3 complex, floated on a sucrose step gradient; top fraction TCA-precipitated, SDS-PAGE, band of Apl4 or Apl5 quantified as percent of load; in Fig. 6E without PIPs or Arf1, in Fig. 6D also with Arf1 and PI3P or PI4P; 150 mM NaCl, 20 mM HEPES/NaOH pH 7.4, 1 mM MgCl2, 10 % glycerol, 60 min 4 °C
Chain of GST-Chs3(aa1-38)-Vam3(TMD) (not stated | yeast) (P29465 other isoform, or with tags, fused parts or gaps): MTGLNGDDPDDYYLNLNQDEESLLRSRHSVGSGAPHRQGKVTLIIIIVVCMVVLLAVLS

[3] = molecular target: Vam3 (yeast vacuolar SNARE, AP-3 cargo with dileucine motif) (yeast) (UniProt Q12241); test: as above
Chain of Vam3 (yeast vacuolar SNARE, AP-3 cargo with dileucine motif) (yeast) (Q12241 whole entry): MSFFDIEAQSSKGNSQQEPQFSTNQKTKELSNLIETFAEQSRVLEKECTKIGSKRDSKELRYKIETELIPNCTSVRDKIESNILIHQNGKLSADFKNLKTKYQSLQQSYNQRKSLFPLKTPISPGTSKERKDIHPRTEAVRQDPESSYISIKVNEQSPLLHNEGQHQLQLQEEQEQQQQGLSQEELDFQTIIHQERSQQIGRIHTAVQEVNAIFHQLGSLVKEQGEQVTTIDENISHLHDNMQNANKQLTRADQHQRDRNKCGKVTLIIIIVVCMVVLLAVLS

[4] = molecular target: T1, Apl5 (δ-subunit of yeast AP-3) with C-terminal 3xFLAG-tag (S. cerevisiae, UniProt Q08951 1-932); test: pull-down + SEC; subunits overproduced together in yeast; captured from cleared lysate on anti-FLAG M2 affinity gel via the C-terminal 3xFLAG-tag on Apl5 (AP-3) or Apl4 (AP-1), eluted with FLAG-peptide, run on Superose 6 Increase; 150 mM NaCl, 20 mM HEPES/NaOH pH 7.4, 1.5 mM MgCl2; Coomassie staining after SDS-PAGE; conditions: partners not purified
T1 construct: Apl5, δ-subunit of the yeast AP-3 complex; ear domain aa 639–932; also called δ-adaptin; not shown: 3xFLAG, C-terminal, kept
T1 sequence (looked up): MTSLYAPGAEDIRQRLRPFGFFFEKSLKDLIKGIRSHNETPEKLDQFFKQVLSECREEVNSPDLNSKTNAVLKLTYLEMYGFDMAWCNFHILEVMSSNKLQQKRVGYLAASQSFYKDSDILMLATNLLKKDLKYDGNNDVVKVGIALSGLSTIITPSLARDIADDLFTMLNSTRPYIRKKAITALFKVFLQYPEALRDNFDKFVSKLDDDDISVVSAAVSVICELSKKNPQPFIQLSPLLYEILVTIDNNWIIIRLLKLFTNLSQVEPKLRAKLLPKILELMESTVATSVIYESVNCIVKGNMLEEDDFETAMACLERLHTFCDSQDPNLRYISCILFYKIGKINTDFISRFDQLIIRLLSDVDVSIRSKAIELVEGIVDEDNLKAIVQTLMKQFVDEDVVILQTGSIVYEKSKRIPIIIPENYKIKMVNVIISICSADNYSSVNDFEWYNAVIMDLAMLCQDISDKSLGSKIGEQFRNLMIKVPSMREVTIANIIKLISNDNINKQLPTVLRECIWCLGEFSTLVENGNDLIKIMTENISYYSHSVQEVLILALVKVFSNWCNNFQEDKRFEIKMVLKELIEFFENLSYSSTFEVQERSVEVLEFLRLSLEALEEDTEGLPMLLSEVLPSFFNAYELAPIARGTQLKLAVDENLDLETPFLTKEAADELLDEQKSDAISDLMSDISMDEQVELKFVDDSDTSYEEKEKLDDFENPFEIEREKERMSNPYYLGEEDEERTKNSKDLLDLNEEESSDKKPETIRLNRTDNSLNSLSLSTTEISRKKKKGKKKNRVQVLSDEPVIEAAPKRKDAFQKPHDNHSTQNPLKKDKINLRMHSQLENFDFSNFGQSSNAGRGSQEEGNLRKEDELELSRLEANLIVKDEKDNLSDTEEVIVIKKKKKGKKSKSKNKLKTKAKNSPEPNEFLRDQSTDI

[5] = molecular target: B1; test: cross-linking; 200 μg of purified AP-3 complex, DSSO 0.5 mM added twice, 20 min each at room temperature, quenched with Tris; trypsin, SCX, LC/MS (XlinkX, 1% FDR); conditions: both partners purified
[6] = molecular target: T1, Apl5 (δ-subunit of yeast AP-3) with …; test: as above; conditions: both partners purified
[7] = molecular target: T2, full-length yeast AP-3 complex (S. cerevisiae, UniProt Q08951 1-932; P46682 1-809; P38153 1-483; P47064 1-194); test: liposome flotation assay; proteoliposomes (Golgi-mimicking lipid mix) carrying a total of 1 μM cargo, incubated with purified AP-1 or AP-3 complex, floated on a sucrose step gradient; top fraction TCA-precipitated, SDS-PAGE, band of Apl4 or Apl5 quantified as percent of load; in Fig. 6E without PIPs or Arf1, in Fig. 6D also with Arf1 and PI3P or PI4P; 150 mM NaCl, 20 mM HEPES/NaOH pH 7.4, 1 mM MgCl2, 10 % glycerol, …; conditions: both partners purified
T2 construct: Apl5, δ-subunit of the yeast AP-3 complex; ear domain aa 639–932; Apl6, β3-subunit of the yeast AP-3 complex; ear domain aa 631–809; Apm3, μ3-subunit of the yeast AP-3 complex; Aps3, σ-subunit of the yeast AP-3 complex; Heterotetramer with apparent equimolar stoichiometry, about 300 kDa; also called adapter protein complex 3; copies: + + +

Molecule: B1
- binding result [4]: binds

B2: Aps3 (σ-subunit of yeast AP-3) (natural protein, S. cerevisiae, UniProt P47064 1-194, looked up)
chain: MIHAVLIFNKKCQPRLVKFYTPVDLPKQKLLLEQVYELISQRNSDFQSSFLVTPPSLLLSNENNNDEVNNEDIQIIYKNYATLYFTFIVDDQESELAILDLIQTFVESLDRCFTEVNELDLIFNWQTLESVLEEIVQGGMVIETNVNRIVASVDELNKAAESTDSKIGRLTSTGFGSALQAFAQGGFAQWATGQ
notes: Aps3, σ-subunit of the yeast AP-3 complex
- binding result [5]: binds
- binding result [6]: binds

B3: Apm3 (μ3-subunit of yeast AP-3) (natural protein, S. cerevisiae, UniProt P38153 1-483, looked up)
chain: MYLSFYITDTKNKLIFQYLLGATAPSFKHLWTRVQSTCPQLLEDSSSDDYLDHSMVGRDLEVYKYFSVINKLNYWCLASTSKSKGPLDCFTFLETIDRILLEYFDKDKLSIKKIVNNYDRISLIFNCCVEAGEPNVSDMLYVNKIKEAVPERSDLSKFISSTAHNLQQAVQLPQQRQQQLQQNQISRGSNSLIENEEIVPWRTSRASKHENNELYVDLLETFHVVFEKKKSHLRLLTGSIHGIVDVRSYLNDNPLVAVKLNTMGNDIGIPSLHDCVEINDGVFSPSNITFIPPDGKFRLLEYSVDLSSQVKQSGVRMNSIGLMSLHFQNGLGKDSDEFELSLNIENFKKVSQVDDLKIDLQFNVENADPNEIAYKIKILRNTHGRFENSIIMGQGQWIFDKSTATGTVPVLRGCIEYENTGPNFTKKVDLQTVSLEYSYIGQSASGIYVEAIDIVSGLTIGKNTKLYKGAKYKTQTGNFQVRL
notes: Apm3, μ3-subunit of the yeast AP-3 complex; N-terminal domain aa 1–138, linker aa 139–211
- binding result [4]: binds
- binding result [5]: binds

B4: Nyv1 (yeast SNARE, AP-3 cargo with Yxxφ motif) (natural protein, UniProt Q12255 1-253, looked up)
chain: MKRFNVSYVEVIKNGETISSCFQPFQKNENYGTITSANEQITPVIFHNLIMDMVLPKVVPIKGNKVTKMSMNLIDGFDCFYSTDDHDPKTVYVCFTLVDMPKILPIRILSGLQEYESNATNELLSSHVGQILDSFHEELVEYRNQTLNSSGNGQSSNGNGQNTISDIGDATEDQIKDVIQIMNDNIDKFLERQERVSLLVDKTSQLNSSSNKFRRKAVNIKEIMWWQKVKNITLLTFTIILFVSAAFMFFYLW
notes: Nyv1, yeast SNARE; source: reconstituted into proteoliposomes
- binding result [7]: binds

Continued, values first:

- fold increase in membrane-bound AP-1 with both Arf1-GTP and PI3P or PI4P [1]: 2 to 3 fold
- percent of the complex bound to liposomes with Arf1-GTP (no PIPs) [1]: 10%
Molecule: full-length yeast AP-1 complex (from UniProt Q12028 1-832)

- percent of AP-3 recruited to proteoliposomes (without PIPs or Arf1) [2]: 25%
- percent of AP-3 recruited to proteoliposomes (Vam3 alone) [3]: > 25%
- percent of AP-3 recruited to proteoliposomes (Vam3 with low amounts of Arf1 and PIPs) [3]: 50%
- percent of AP-3 recruited to proteoliposomes (without PIPs or Arf1) [3]: 25%
Molecule: full-length yeast AP-3 complex, Q08951 1-932; P46682 1-809; P38153 1-483; P47064 1-194
